The record followed here is patent US20230332251A1.

This assay has as its target histidine kinase UzcS (Caulobacter crescentus NA1000). The experiment in a line: cell-based or functional assay.

Chain of histidine kinase UzcS (Caulobacter crescentus NA1000) (chain, as listed by the source limits assumed, form in doubt): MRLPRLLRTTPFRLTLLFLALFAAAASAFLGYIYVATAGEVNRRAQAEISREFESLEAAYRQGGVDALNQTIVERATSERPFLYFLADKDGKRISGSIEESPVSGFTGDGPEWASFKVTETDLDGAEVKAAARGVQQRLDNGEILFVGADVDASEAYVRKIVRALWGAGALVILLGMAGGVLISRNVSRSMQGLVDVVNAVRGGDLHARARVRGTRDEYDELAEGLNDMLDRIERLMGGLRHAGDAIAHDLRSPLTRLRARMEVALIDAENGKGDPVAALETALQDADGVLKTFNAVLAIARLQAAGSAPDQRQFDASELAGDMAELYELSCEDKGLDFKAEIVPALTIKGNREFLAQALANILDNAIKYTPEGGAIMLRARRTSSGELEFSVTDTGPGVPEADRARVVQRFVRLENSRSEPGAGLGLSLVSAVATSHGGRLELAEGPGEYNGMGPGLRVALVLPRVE

Consider UzcY (protein encoded by CCNA_03497), for which the fold decrease in U detection limit of UzcRS (reporter fluorescence in C. crescentus, +UzcY versus -UzcY, FIG. 12) was more than 4 fold.
